Results reported in US20030165995A1 (Takeda / Millennium, published 2003).

Columns and labels:
[1] = target: T1, human Bonzo with N-terminal hemagglutinin (HA) epitope, expressed on transfected L1.2 cells (Bonzo/L1.2 cells) (human, UniProt O00574 1-342); experiment: Scatchard analysis of 125I-labeled SExCkine binding to Bonzo/L1.2 cells
T1 construct: also called CXCR6; STRL33
T1 sequence: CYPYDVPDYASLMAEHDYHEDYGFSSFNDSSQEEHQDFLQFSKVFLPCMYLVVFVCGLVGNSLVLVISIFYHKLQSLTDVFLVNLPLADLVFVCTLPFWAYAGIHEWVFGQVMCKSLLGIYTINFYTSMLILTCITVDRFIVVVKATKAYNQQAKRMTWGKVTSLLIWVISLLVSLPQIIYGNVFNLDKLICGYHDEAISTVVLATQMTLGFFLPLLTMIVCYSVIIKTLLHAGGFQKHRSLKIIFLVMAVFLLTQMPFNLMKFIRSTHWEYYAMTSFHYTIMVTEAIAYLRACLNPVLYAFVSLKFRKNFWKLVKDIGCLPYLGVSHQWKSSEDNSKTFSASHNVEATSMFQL
Method: (§1) The amount of ¹²⁵I-labeled SExCkine (CXCL16) that bound to Bonzo/L1.2 cells was determined by scintillation counting, and % inhibition of binding (0% inhibition is the amount of binding in the absence of unlabeled SExCkine (CXCL16)) was calculated. […] FIG. 43B depicts the Scatchard analysis of the binding data.
(§2) Exponentially-growing Bonzo/L1.2 transfectants were counted on the day of the assay and were resuspended in binding assay buffer (BAB) (10 mM HEPES/1 mM CaCl₂/5 mM MgCl₂/0.5% BSA/0.05% Na Azide) at a density of 2.5×10⁶ cells/mL. Purified recombinant SExCkine (CXCL16) was labeled with I¹²⁵ using a sodium iodine method (Amersham, Arlington Heights, Ill.) and was diluted to 4 nM in BAB. Cold (unlabeled) SExCkine (in PBS at 5.3 μM) was diluted for competition in BAB to 0.4 nM, 2 nM, 4 nM, 20 nM, 40 nM, and 400 nM. […] For calculation of total I¹²⁵ input, 50 μL of cells was added to 25 μL of I¹²⁵I-labeled SExCkine and 25 μL BAB. All tubes were incubated for 1 hour at room temperature, after which time the cells were spun down at 3500 rpm and washed five times in BAB+0.5 M NaCl. After the final wash, the cell pellet was resuspended in 100 μL of wash buffer and the I¹²⁵ counts were calculated using a Cobra II auto-gamma scintillation counter (Packard, Downers Grove, Ill.) along with the total input sample. Binding data was calculated using a program written in Excel.

[2] = target: T2, CCR7 expressed on transfected L1.2 cells (UniProt P32248 25-378, limits assumed); experiment: 125I-labeled SExCkine binding to receptor transfectants
T2 construct: whole, on cells
T2 sequence (looked up): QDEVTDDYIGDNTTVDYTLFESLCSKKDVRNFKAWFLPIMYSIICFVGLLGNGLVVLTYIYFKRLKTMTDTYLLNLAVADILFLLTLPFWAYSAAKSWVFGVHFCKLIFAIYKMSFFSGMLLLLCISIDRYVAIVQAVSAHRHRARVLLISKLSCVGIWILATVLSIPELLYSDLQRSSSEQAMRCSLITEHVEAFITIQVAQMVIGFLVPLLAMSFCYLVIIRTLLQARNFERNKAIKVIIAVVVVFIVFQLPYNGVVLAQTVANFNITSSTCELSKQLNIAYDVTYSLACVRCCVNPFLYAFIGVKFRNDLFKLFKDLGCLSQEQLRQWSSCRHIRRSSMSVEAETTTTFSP

[3] = target: T3, CCR6 expressed on transfected L1.2 cells (UniProt P51684 1-374, limits assumed); experiment: as above
T3 construct: whole, on cells
T3 sequence (looked up): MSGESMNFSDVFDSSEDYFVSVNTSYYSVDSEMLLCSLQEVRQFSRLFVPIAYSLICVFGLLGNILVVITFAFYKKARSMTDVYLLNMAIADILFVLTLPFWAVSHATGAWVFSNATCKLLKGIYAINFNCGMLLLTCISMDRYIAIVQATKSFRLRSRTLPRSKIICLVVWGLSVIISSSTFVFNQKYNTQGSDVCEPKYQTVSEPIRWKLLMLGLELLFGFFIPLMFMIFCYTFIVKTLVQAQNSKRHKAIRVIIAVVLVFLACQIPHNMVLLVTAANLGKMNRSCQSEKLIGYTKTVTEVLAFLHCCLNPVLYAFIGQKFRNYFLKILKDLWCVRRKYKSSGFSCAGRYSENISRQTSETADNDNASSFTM

[4] = target: T1, human Bonzo with N-terminal …; experiment: competition with 1 nM 125I-labeled SExCkine for binding to Bonzo/L1.2 cells, gamma counting
Method: as §1, §2

B1: purified recombinant His-tagged SExCkine (entire predicted extracellular domain, amino acid residues 1 to 202 of SEQ ID NO:4) (ligand)
chain: NEGSVTGSCYCGKRISSDSPPSVQFMNRLRKHLRAYHRCLYYTRFQLLSWSVCGGNKDPWVQELMSCLDLKECGHAYSGIVAHQKHLLPTSPPISQASEGASSDIHTPAQMLLSTLQSTQRPTLPVGSLSSDKELTRPNETTIHTAGHSLAVGPEAGENQKQPEKNAGPTART
modifications: heavily glycosylated; iodinated with 125I where used as tracer
notes: Expressed in 293T cells, purified on wheat germ agglutinin and NiNTA; also called purified recombinant SExCkine (CXCL16); recombinant His-tagged SExCkine protein; not shown: C-terminal His tag from the pEF-His vector
For B1, which Kd [1] is on record?
The Kd was 1 nM.

Does B1 bind [2]?
Result: no binding

Does B1 bind [3]?
Result: no binding

And the IC50 [4]?
The IC50 was 1 nM.
